Experimental data as given in patent publication US20230372551A1, “RADIOLABELED LIGANDS FOR TARGETED PET/SPECT IMAGING AND METHODS OF THEIR USE” (priority 2020, published 2023).
Non-standard residues stand in square brackets, D forms with d. Residues, ends and D or L forms follow the SMILES beside them. *: point of attachment. X1 = CC(=O)N(O)CCCCCNC(=O)CCC(=O)N(O)CCCCCNC(=O)CCC(=O)N(O)CCCCCNC(=O)CCN1C(=O)CC(*)C1=O

Key:
[1] = in vivo; set-up: species or system BALB/c mice; conditions: BALB/c, mouse, total radioactivity
Description: (§1) In vivo animal PET imaging and biodistribution. All injections were less than 200 μL with <10% EtOH in sterile PBS. PET images were obtained with the mice under anesthesia in an Inveon PET-CT at 4-144 h p.i. All images were analyzed using 3D Slicer (www.slicer.org). Dissections for ex vivo biodistribution were performed on mice after C02 asphyxiation or cervical dislocation while anesthetized at reported time points. Weight of the syringe prior to injection and after injection was used to determine the mass of injectate. Activity of the syringe prior to injection and after injection was used to determine the percent of injectate administered. The mass injected was corrected by the percent of radioactivity injected. Four to five aliquots (10 μL) were weighed and counted as internal standards for each study. All of the collected organs were counted using an automatic gamma counter (Wizard 3″, PerkinElmer, Waltham, MA). The total injected dose was found as the mass injected dose×fraction radioactivity injected×internal standard average counts/g. The percent injected dose (% ID) was determined as the counts for the tissue×100/total injected dose. The % ID/g was calculated as the % ID/tissue weight. The average and standard deviation of the % ID and % ID/g was determined using normal methods (n-1) for each set of mice.
(§2) 4T1 orthotopic BALB c mouse model. Animal studies were conducted according to MSKCC IACUC-approved animal protocol.
(§3) The 4T1 cells derived from spontaneous breast tumor in a BALB/c mouse (Karmanos Cancer Institute, Detroit, MI) were cultured in Dulbecco's modified Eagle's high glucose media with 10% FCS, 2 mM L-glutamine, penicillin, and streptomycin. The 4T1 cells derived from ATCC (Manassas, VA) were cultured in RPMI-1640 medium modified to contain 2 mM L-glutamine, 10 mM HEPES, 1 mM sodium pyruvate, 4.5 g/L glucose, 1.5 g/L NaHCO3, penicillin, and streptomycin.
(§4) The 4T1 cells described above were removed from the flasks containing the culture, concentrated, and resuspended in minimal media for cell counting. […]

[2] = system: 4T1 tumors; assay: in vivo; set-up: species or system BALB/c mice; conditions: mouse
Description: as §1, §2, §3, §4

[3] = in vivo; conditions: male, athymic nude, mouse, 200 uCi (1.2 nmol), total radioactivity, ex vivo distribution
Description: All injections were less than 200 μL with <10% EtOH in sterile PBS. […] All images were analyzed using 3D Slicer (www.slicer.org). Dissections for ex vivo biodistribution were performed on mice after C02 asphyxiation or cervical dislocation while anesthetized at reported time points. Weight of the syringe prior to injection and after injection was used to determine the mass of injectate. Activity of the syringe prior to injection and after injection was used to determine the percent of injectate administered. The mass injected was corrected by the percent of radioactivity injected. Four to five aliquots (10 μL) were weighed and counted as internal standards for each study. All of the collected organs were counted using an automatic gamma counter (Wizard 3″, PerkinElmer, Waltham, MA). […] The percent injected dose (% ID) was determined as the counts for the tissue×100/total injected dose. The % ID/g was calculated as the % ID/tissue weight. The average and standard deviation of the % ID and % ID/g was determined using normal methods (n-1) for each set of mice.
Tissue samples were collected for additional ex vivo biodistribution studies to confirm the PET data results.

SMILES: CC(=O)N(O)CCCCCNC(=O)CCC(=O)N(O)CCCCCNC(=O)CCC(=O)N(O)CCCCCNC(=O)CCN1C(=O)CC(SC[C@@H](NC(=O)[C@@H](C)N)C(=O)N[C@H](CC(=O)O)C(=O)N[C@H](CC(=O)O)C(=O)N[C@H](CCC(N)=O)C(=O)N[C@H](CC(N)=O)C(=O)N2CCC[C@@H]2C(=O)N[C@H](Cc2c[nH]c3ccccc23)C(=O)N[C@H](CCCNC(=N)N)C(=O)N[C@H](C)C(=O)N[C@H](Cc2ccc(O)cc2)C(=O)N[C@H](CC(C)C)C(=O)N[C@H](CC(=O)O)C(=O)N[C@H](CC(C)C)C(=O)N[C@H](CC(C)C)C(=O)N[C@H](Cc2ccccc2)C(=O)N2CCC[C@@H]2C(=O)N[C@@H](C(=O)N[C@H](CC(=O)O)C(=O)N[C@@H](C(=O)N[C@H](CC(C)C)C(=O)N[C@H](CC(C)C)C(=O)N[C@H](CC(C)C)C(=O)N[C@H](CC(=O)O)C(=O)N[C@H](CC(C)C)C(=O)N[C@H](CC(C)C)C(=O)N[C@H](Cc2c[nH]c3ccccc23)C(=O)O)[C@H](C)O)[C@H](C)O)C1=O (stereo partly drawn) [[^89Zr]Zr-DFO-cys-Var3pHLIP, metal not drawn] (H-[dA][dC](X1)[dD][dD][dQ][dN][dP][dW][dR][dA][dY][dL][dD][dL][dL][dF][dP][dT][dD][dT][dL][dL][dL][dD][dL][dL][dW]-OH; N-terminus and C-terminus assumed)
- tissue uptake [1]: ~15 %ID/g
- time until which tumor uptake continues to increase [2]: approximately 48 h
- circulatory half-life ([2]; 5 ug): long circulatory half-life
- tissue uptake at 48 h ([3]; Femur): 1.4 ± 0.1 %ID/g
- tissue uptake at 48 h ([3]; Muscle): 0.6 ± 0.7 %ID/g
